Residue numbers refer to the chain shown, from its start. Where no end group is shown, it is not given here. The star is where a group is joined. Biotin = O=C1N[C@H]2[C@H](CS[C@H]2CCCCC(=O)*)N1; Ahx = NCCCCCC(=O)O
T1: 82-96aa
T1 construct: also called alpha-synuclein peptide 82-96
T1 peptide: {Biotin-Ahx}-VEGAGSIAAATGFVK

T2: 91-105aa
T2 peptide: {Biotin-Ahx}-ATGFVKKDQLGKNEE

T3: 127-140aa
T3 peptide: {Biotin-Ahx}-MPSEEGYQDYEPEA

T4: 1-14aa
T4 construct: also called alpha-synuclein peptide 1-14
T4 peptide: MDVFMKGLSKAKEG-biotin

T5: 1-15aa
T5 construct: also called alpha-synuclein peptide 1-15
T5 peptide: {Biotin-Ahx}-MDVFMKGLSKAKEGV

T6: 10-24aa
T6 construct: also called alpha-synuclein peptide 10-24
T6 peptide: {Biotin-Ahx}-KAKEGVVAAAEKTKQ

T7: 46-60aa
T7 construct: also called alpha-synuclein peptide 46-60
T7 peptide: {Biotin-Ahx}-EGVVHGVATVAEKTK

T8: 118-132aa
T8 peptide: {Biotin-Ahx}-VDPDNEAYEMPSEEG

T9: 64-78aa
T9 construct: also called alpha-synuclein peptide 64-78
T9 peptide: {Biotin-Ahx}-TNVGGAVVTGVTAVA

B1: ACI-7079-2506E2-Ab2 (antibody, V domains shown)
VH: QVQLQQSGPELVRPGASVKISCKASGYAFSNSWMNWVKQRPGKGLEWIGRIFPGDGDTYYDGKFKGKVKLTTDKFSNTAYMQLRSLTSEDSAVYFCARWGGTNDEWFAHWGQGTLVTVSV
VL: DIVLTQSPASLTVSLGQRATISCRASQSVSTSRNSYMHWYQQKPRQPPKLLIKYASNLESGVPARFSGSGSGADFTLNIHPVEEEDTATYYCQHSWDIPLTFGTGTKLELS
notes: mouse hybridoma mAb; VH/VL only; also called 2506E2G4
B2: ACI-7067-1116F2-Ab1 (antibody, V domains shown)
VH: DVQLQESGPGFVKPSQSLSLTCSVTGYSITRGFYWNWIRQFPGNKLEWMGYISDDGNSNYNPSLKNRISITRDTFKNQVFLRLNSVTTEDTATYYCTRGDLLWGQGTTLTVSS
VL: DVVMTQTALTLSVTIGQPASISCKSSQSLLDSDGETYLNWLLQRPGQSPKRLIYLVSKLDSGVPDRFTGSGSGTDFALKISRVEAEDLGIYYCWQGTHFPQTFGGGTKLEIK
notes: mouse hybridoma mAb; VH/VL only; also called 1116F2A2
B3: ACI-7079-2503C6-Ab1 (antibody, V domains shown)
VH: DVQLQESGPGLVKPSQSLSLTCSVTGYSITSGYYWNWIRLFPGNKLEWLGYINYDGSNNFNPSLKNRISITRDTSKNQFFLKLNSVTSEDTATYFCLRGDWDWGQGTLVTVSA
VL: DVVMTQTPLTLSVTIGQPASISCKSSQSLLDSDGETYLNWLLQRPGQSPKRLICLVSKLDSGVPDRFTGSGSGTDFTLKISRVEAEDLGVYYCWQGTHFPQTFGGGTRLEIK
notes: mouse hybridoma mAb; VH/VL only; also called 2503C6H9
B4: ACI-7067-1107G5-Ab2 (antibody, V domains shown)
VH: QVQLQQPGTELVKPGASVKLSCKASGYTFTKYWMHWVKQRPGQGLEWIGNINPNNGDTNYNEKFKSKATLTVDKSSSTAYMQLSSLTSEDSAVYYCAIAMDYWGQGTSVTVSS
VL: DIQMTQSPSSLSAFLGERVSLTCRASQDIGNNLNWFQQEPDGTIKRLIYATSSLDSGVPKRFSGSRSGSEYSLTISSLESEDFVDYYCLQFGSSPLTFGAGTKLELK
notes: mouse hybridoma mAb; VH/VL only; also called 1107G5B6
B5: ACI-7067-1111B12-Ab2 (antibody, V domains shown)
VH: B4 VH with Q5L, E10A, K13M, K31T, N54I, D57G, T58S, T69S, A97V
VL: B4 VL with F14S, N31I, N32S, S65N, E70D, V84A, G92A
notes: mouse hybridoma mAb; VH/VL only; also called 1111B12H10
B6: ACI-7067-1101C8-Ab2 (antibody, V domains shown)
VH: EVQLVESGGGLVQPKGSLKLSCAASGFSFNIYAMNWVRQAPGKGLEWVARIRSKSNNYATYYADSVKDRFTISRADSESMLYLQMNNLKTEDTAMYYCVRVGLRFYAMDYWGQGTSVTVSS
VL: DVLMTQTPLSLPVSLGDQASISCRSSQSIVHSNGNTYLEWYLQKPGQSPKLLIYKVSNRFSGVPDRFSGSGSGTDFTLKISRVEAEDLGVYYCFQGSQGPLTFGAGTKLELK
notes: mouse hybridoma mAb; VH/VL only; also called 1101C8F7
B7: ACI-7079-2501G2-Ab2 (antibody, V domains shown)
VH: B6 VH with S28N, I31T, S53T, Y58F, D64H, A75D, V101Q, R104A, F105Y
VL: B6 VL with A19V, S28T
notes: mouse hybridoma mAb; VH/VL only; also called 2501G2E5
B8: ACI-7079-2501B11-Ab3 (antibody, V domains shown)
VH: QVQLQQSGPELVKPGASVKISCKASGYAFSSFWMNWMKQRPGKGLEWIGRIYPGDGDAHYNGEFKGRATLTADKSSSTAYMQLSSLTSEDSAVYFCARKGDFYGSNYDYWGQGTTLTVSS
VL: QAVVTQESALTTSPGETVTLTCRSSTGAVTTSNYANWVQEKPDHLFTGLIGGTNNRAPGVPARFSGSLIGDKAALTITGAQTEDEAIYFCALWYSNHLVFGGGTRLTVL
notes: mouse hybridoma mAb; VH/VL only; also called 2501B11C7
B9: ACI-7079-2606A6-Ab2 (antibody, V domains shown)
VH: QVQLQQSGPELVKPGASVKISCKASGFAFSSSWMNWVKQRPGKGLEWVGRIFPGDGDTNYDRKFKDKATLTADKSSSTAYMQLSSLTSEDSAVYFCARWTGGYDWFAYWGQGTLVTVSA
VL: DIVLTQSPASLAVSLGQRATISCRASQSVSTSNYNYLHWYQQKPGQPPKLLITYASNLESGVPARFSGSGSGTDFTLNIHPVEEGDTATYYCQHSWEIPLTFGAGTKLELK
notes: mouse hybridoma mAb; VH/VL only; also called 2606A6D5

Key:
[1] = target: T1, 82-96aa; test: indirect ELISA on biotinylated 15-mer peptide
[2] = target: T2, 91-105aa; test: indirect ELISA on biotinylated 15-mer peptide
[3] = target: T3, 127-140aa; test: indirect ELISA on biotinylated 15-mer peptide
[4] = target: T4, 1-14aa; test: indirect ELISA on biotinylated 15-mer peptide
[5] = target: T5, 1-15aa; test: indirect ELISA on biotinylated 15-mer peptide
[6] = target: T6, 10-24aa; test: indirect ELISA on biotinylated 15-mer peptide
[7] = target: T7, 46-60aa; test: indirect ELISA on biotinylated 15-mer peptide
[8] = target: T8, 118-132aa; test: indirect ELISA on biotinylated 15-mer peptide, supernatant 1/100
[9] = target: T9, 64-78aa; test: indirect ELISA on biotinylated 15-mer peptide
[10] = target: T8, 118-132aa; test: indirect ELISA on biotinylated 15-mer peptide
[11] = target: T1, 82-96aa; test: indirect ELISA on biotinylated 15-mer peptide, supernatant 1/100
[12] = target: alpha-synuclein seeds (UniProt P37840 1-140); test: cell-based or functional assay
[13] = target: T7, 46-60aa; test: indirect ELISA on biotinylated 15-mer peptide, supernatant 1/100
[14] = target: T2, 91-105aa; test: as above

| Binder | binding result [1] | binding result [2] | binding result [3] | binding result [4] | binding result [5] | binding result [6] | binding result [7] | binding result [8] | binding result [9] | binding result [10] | binding result [11] | aggregation half-time (τ1/2) of seeded alpha-synuclein aggregation, ThT; no antibody 26.9 hours [12] [h] | binding result [13] | binding result [14] |
| --- | --- | --- | --- | --- | --- | --- | --- | --- | --- | --- | --- | --- | --- | --- |
| B1 | no binding (tested: supernatant 1/100) | no binding (tested: supernatant 1/100) | no binding (tested: supernatant 1/100) | no binding (tested: supernatant 1/100) | no binding (tested: supernatant 1/100) | no binding (tested: supernatant 1/100) | no binding (tested: supernatant 1/100) | binds | – | – | – | – | – | – |
| B2 | – | – | no binding (tested: supernatant 1/100) | – | – | – | no binding (tested: supernatant 1/100) | – | no binding (tested: supernatant 1/100) | no binding (tested: supernatant 1/100) | binds | – | – | – |
| B3 | – | no binding (tested: supernatant 1/100) | no binding (tested: supernatant 1/100) | no binding (tested: supernatant 1/100) | no binding (tested: supernatant 1/100) | no binding (tested: supernatant 1/100) | no binding (tested: supernatant 1/100) | – | – | no binding (tested: supernatant 1/100) | binds | 22.5 | – | – |
| B4 | no binding (tested: supernatant 1/100) | – | no binding (tested: supernatant 1/100) | – | – | – | – | – | no binding (tested: supernatant 1/100) | no binding (tested: supernatant 1/100) | – | – | binds | – |
| B5 | no binding (tested: supernatant 1/100) | – | no binding (tested: supernatant 1/100) | – | – | – | – | – | no binding (tested: supernatant 1/100) | no binding (tested: supernatant 1/100) | – | – | binds | – |
| B6 | no binding (tested: supernatant 1/100) | – | no binding (tested: supernatant 1/100) | – | – | – | no binding (tested: supernatant 1/100) | binds | no binding (tested: supernatant 1/100) | – | – | 64 | – | – |
| B7 | no binding (tested: supernatant 1/100) | no binding (tested: supernatant 1/100) | no binding (tested: supernatant 1/100) | no binding (tested: supernatant 1/100) | no binding (tested: supernatant 1/100) | no binding (tested: supernatant 1/100) | no binding (tested: supernatant 1/100) | binds | – | – | – | – | – | – |
| B8 | no binding (tested: supernatant 1/100) | – | no binding (tested: supernatant 1/100) | no binding (tested: supernatant 1/100) | no binding (tested: supernatant 1/100) | no binding (tested: supernatant 1/100) | no binding (tested: supernatant 1/100) | – | – | no binding (tested: supernatant 1/100) | – | – | – | binds |
| B9 | no binding (tested: supernatant 1/100) | – | no binding (tested: supernatant 1/100) | no binding (tested: supernatant 1/100) | no binding (tested: supernatant 1/100) | no binding (tested: supernatant 1/100) | no binding (tested: supernatant 1/100) | – | – | no binding (tested: supernatant 1/100) | – | – | – | binds |

From patent US20250340623A1 (AC IMMUNE, published 2025)
